Measurements published in US20200407449A1 (PHARMABCINE, published 2020).

How the values were obtained:
[1] = target: T1, mouse VISTA-Fc (mouse, UniProt Q9D659 33-191); test: ELISA, plate coated with 1 ug/ml mouse VISTA-Fc, antibody at 1 ug/ml, anti-human IgG (kappa)-peroxidase
T1 construct: extracellular domain; also called mVISTA-Fc; VISTA-FC Mouse; not shown: Fc portion
T1 sequence (looked up): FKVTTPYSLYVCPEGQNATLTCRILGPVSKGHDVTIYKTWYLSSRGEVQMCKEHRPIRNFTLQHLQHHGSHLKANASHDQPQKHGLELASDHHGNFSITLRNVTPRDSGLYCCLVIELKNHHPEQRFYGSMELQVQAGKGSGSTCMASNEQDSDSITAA
Description: ELISA assay: 1 μg/ml of Ag (human VISTA-Fc or mouse VISTA-Fc) was plated at 100 μl/well onto a 96-well plate and incubated at 4° C. overnight. The next day, the plated Ag was washed 3 times with 0.05% PBST and 200 μl of 2% BSA blocking buffer was added thereto, followed by incubation at 25° C. for 2 hours. After blocking was completed, the resulting product was washed 3 times with 0.05% PBST. 1 μg/ml of each antibody was injected at 100 μl/well and incubated at 25° C. for 1 hour. After incubation was completed, the resulting product was washed 3 times with 0.05% PBST and 100 μl of goat anti-human IgG (kappa)-conjugated peroxidase (1:2000, Bethyl Lab #A80-115P) was added thereto, followed by incubation at 25° C. for […]. After incubation, the resulting product was washed 3 times with 0.05% PBST, 100 μl of TMB (BD TMB substrate reagent set #555214) was added, color was developed for 3 to 5 minutes, 50 μl of a stop solution was added thereto, and then an assay was performed using an ELISA reader.

[2] = target: T2, hVISTA-Fc (R&D systems. Cat. No. 7126-B7) (human, UniProt Q9H7M9 33-194); test: Octet (BLI), antibody immobilised on biosensor, antigen in solution
T2 construct: Bought antigen; also called human VISTA-Fc; VISTA-FC Human
T2 sequence: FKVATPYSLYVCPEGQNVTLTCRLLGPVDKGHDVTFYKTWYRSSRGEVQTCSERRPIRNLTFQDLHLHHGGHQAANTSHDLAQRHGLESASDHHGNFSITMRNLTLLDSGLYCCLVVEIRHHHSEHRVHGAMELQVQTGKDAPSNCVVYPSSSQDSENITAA
Description: (§1) The binding ability of the screened antibody to the antigen was measured using an Octet (ForteBio). For this purpose, the antibody was immobilized on a biosensor, various concentrations of antigen were added to a 96-well plate, and then the binding ability was measured.

[3] = target: T2, hVISTA-Fc (R&D systems. Cat. No. …); test: monoclonal scFv phage ELISA, plate coated with 1 ug/ml VISTA-Fc, anti-M13-HRP
Description: (§2) After the panning process was completed, the final round cell stock was diluted to form 200 to 500 colonies, spread on a CM agar plate, and then incubated overnight at 37° C. The next day, when the colonies grew, 200 μl of 2xYT medium (CM 34 μg/ml+1% glucose) was plated onto a 96-well deep plate, the colony was inserted into each well one by one and the plate was then incubated overnight at 37° C. and 3,000 rpm. The next day, 200 μl of 2×YT medium (CM 34 μg/ml+1% glucose) was plated onto a new 96-well dip plate, and […] of cells grown the day before were injected into each well and grown at 37° C. and 3,000 rpm for 1 hour and 10 minutes. The remaining cells were stored at −70° C. in 100 pμl of 50% glycerol. When the cells grew, 1 μl of a helper phage was mixed with 19 μl of 2×YT medium, and 20 μl of the resulting mixture was injected into each well and incubated for 30 minutes at 37° C. After incubation, centrifugation was performed at 3,000 rpm for 10 minutes. The supernatant was discarded and 200 μl of 2×YT medium (CM 34 μg/ml+Kan. 70 μg/ml+1 mM IPTG+5 mM MgCl₂) was added to the residue, followed by incubation in MegaGrow at 30° C. and 3,000 rpm overnight.
(§3) 1 μg/ml of Ag (hVISTA-Fc, mVISTA-Fc) was plated at 100 μl/well onto a 96-well immunoplate and then incubated overnight at 4° C. The next day, the cells grown the day before were centrifuged at 3,000 rpm for 10 minutes and stored at 4° C. The plated Ag was washed 3 times with 0.05% PBST, and then 200 μl of 2% BSA blocking buffer was added thereto, followed by incubation at 25° C. for 2 hours. After blocking was completed, the result was washed 3 times with 0.05% PBST. […] After phage binding was completed, the reaction product was washed three times with 0.05% PBST, 100 μl of HRP-conjugated mouse anti-M13 antibody (1:3000, #GE 27-9421-01) was added thereto, and reaction was allowed to proceed at 25° C. for 1 hour. After the reaction was completed, the resulting product was washed 3 times with 0.05% PBST, 100 μl of TMB (#BD TMB substrate reagent set 555214) was added thereto, color was developed for 3 to 5 minutes, 50 μl of a stop solution was added thereto, and then an assay was performed using an ELISA reader.

[4] = target: T1, mouse VISTA-Fc; test: Octet (BLI), antibody immobilised on biosensor, antigen in solution
Description: as §1

[5] = target: T1, mouse VISTA-Fc; test: monoclonal scFv phage ELISA, plate coated with 1 ug/ml VISTA-Fc, anti-M13-HRP
Description: as §2, §3

[6] = target: T2, hVISTA-Fc (R&D systems. Cat. No. …); test: dissociation rate constant of scFv in the screening of optimised clones; antigen not named

B1: anti-VISTA antibody 1A12 (IgG form) (antibody, V domains shown)
VH: QMQLVESGGGLVEPGRSLRLSCTTSGFSFHDYTMYWVRQVPGKGLEWVSLISWDGTITFYADPVRGRFTISRDNSKNSLYLQMNSLRAEDTAVYYCAKEDRYDYYSGAFDIWGQGTVVTVSS
VL: QSALTQPRSVSGSPGQSVTISCTGTSSDVGGYDYVSWYQQHPGKAPKLILNDVNKRPSGVPDRFSGSKSGNTASLTISGLQPDDEADYYCSSFAGSNTLRVFGGGTKLTVLG
For B1, the binding result [1] was “no binding (tested: 1 ug/ml)”, the Kd [2] was 0.546 nM and the koff [2] was 2.74e-05 s⁻¹. The kon [2] was 50200 M⁻¹ s⁻¹.

B2: anti-VISTA antibody 3C5 (IgG form) (antibody, V domains shown)
VH: QVQLVQSGAEVKKPGASVKLSCKASGYTFSSYWMHWVRQAPGQRLEWMGEINPGNGHTNYNEKFKSRVTITVDKSASTAYMELSSLRSEDTAVYYCAKDIAYYDFWSGDAFDLWGQGTMVTVSS
VL: SYELTQPLSVSVSPGQTASITCSGDKLGNKYASWYQQKPGQSPVLVIYQDNKRPSGIPERFSGSNSGNTATLTISGTQATDEADYYCQTWDRSTGVFGTGTKVTVLG
For B2, the binding result [1] was “no binding (tested: 1 ug/ml)”, the Kd [2] was 13.9 nM and the koff [2] was 0.00367 s⁻¹. The kon [2] was 264000 M⁻¹ s⁻¹.

B3: 1A12 monoclonal scFv phage (scFv, V domains shown)
VH: B1 VH
VL: B1 VL
B3 gave an OD [3] of 1.88 OD.

B4: 3C5 monoclonal scFv phage (scFv, V domains shown)
VH: B2 VH
VL: B2 VL
With B4 the OD [3] was 2.2 OD.

B5: anti-VISTA antibody 2C12 (IgG form) (antibody, V domains shown)
VH: QVQLVESGAEVKKPGASVKVSCKASGYIFTDYYMHWVRQAPGQGLEWMGVINPYDGRTSFAQKFQGRLTVTRDTSTSTAYMDLSGLRSEDTAVYYCAKQMGIWDYDAFDIWGQGTMVTVSS
VL: QFVLTQPSSVSGAPGQRVIISCTGSSSNIGAGYDVHWYQQLPGTAPKVLIYGNSDRPSGVPDRFSASKSATSASLAITGLQAEDEADYYCVAWDDSLKAYVFGTGTKVTVLG
notes: also called #2C12(H); #2C12(M)
B5 showed a Kd [4] of 14 nM, a koff [4] of 0.00078 s⁻¹ and a kon [4] of 55700 M⁻¹ s⁻¹. The Kd [2] was 1.02 nM, the koff [2] was 8.48e-05 s⁻¹ and the kon [2] was 83400 M⁻¹ s⁻¹.

B6: 2C12 monoclonal scFv phage (scFv, V domains shown)
VH: B5 VH
VL: B5 VL
For B6, the OD [5] was 2.03 OD and the OD [3] was 2.11 OD.

B7: 1B8 monoclonal scFv phage (scFv, V domains shown)
VH: QMQLVQSGAEVKKPGSSVKVSCKASGGSSSNYAISWVRQAPGQGLEWMGGIIPIFGTTSYAQKFQGRVTITADGSMSTAYMELSSLRSEDTAVYYCAKGAIEPWPFYFDNWGQGTLVTVSS
VL: QLVLTQPRSVSGSPGQSVTISCTGTNSDVGAYNYLSWYQQLPGRAPKVIIYDVNKRPSGVPDRFSGSRSGKTASLTISGLQAEDEADYYCAAWDDSLNGLVFGGGTKLTVLG
notes: also called IB8; Anti VISTA.3.0 (1B8)
With B7 the OD [3] was 2.13 OD and the koff [6] was 0.000732 s⁻¹.
